How the values were obtained:
[1] = target: recombinant purified multimeric HIV-1 CA tubes assembled from cross-linked CA hexamers (CA A14C/E45C) (HIV-1 (NL4-3)); assay: co-sedimentation; 20 μL CA tubes (~1.4 μM) mixed with 80 μL clarified HEK293T whole-cell lysate (1.5 mg/mL) in CA binding buffer (10 mM Tris pH 7.4, 1.5 mM MgCl2, 10 mM KCl), 1 h at room temperature; 21,000 x g for 8 min at 4°C; NUP153C detected with anti-HA, signals normalized to input
[2] = target: recombinant purified multimeric HIV-1 CA tubes assembled from cross-linked CA hexamers (CA A14C/E45C) (HIV-1 (NL4-3))
[3] = target: recombinant purified multimeric HIV-1 CA tubes assembled from cross-linked CA hexamers (CA A14C/E45C) (HIV-1 (NL4-3)); assay: cross-linking; disulfide cross-linking of purified CA A14C/E45C by dialysis in assembly buffer (25 mM Tris-Cl pH 8.0, 1 M NaCl) with falling β-ME at 4°C; hexamers assessed by SDS-PAGE, tubes by transmission electron microscopy

Row | Substance | HIV-GFP transduction of HEK293T cells expressing TRIM-NUP153C, relative percentage of GFP-positive cells [2] | other results
1 | TRIM-NUP153C(human)-HA, wild type (from UniProt Q0PF16 1-304; P49790 896-1475) |  | percent detected in the pellet fraction with CA tubes [1]: 46%; HIV-GFP transduction of HEK293T cells expressing TRIM-NUP153C, GFP-positive cells relative to the no TRIM control (flow cytometry) [2]: 53%
2 | TRIM-NUP153C-HA F1415M (from UniProt Q0PF16 1-304; P49790 896-1475) | 52% | 
3 | TRIM-NUP153C-HA F1417Y (from UniProt Q0PF16 1-304; P49790 896-1475) | 77.9% | 
4 | TRIM-NUP153C-HA G1413M (from UniProt Q0PF16 1-304; P49790 896-1475) | 61.7% | 
5 | TRIM-NUP153C-HA G1413W (from UniProt Q0PF16 1-304; P49790 896-1475) |  | percent bound to CA tubes (cosedimented) [1]: 59%
6 | TRIM-NUP153C-HA G1418A (from UniProt Q0PF16 1-304; P49790 896-1475) | 79% | 
7 | TRIM-NUP153C-HA P1411M (from UniProt Q0PF16 1-304; P49790 896-1475) |  | HIV-GFP transduction of HEK293T cells expressing TRIM-NUP153C, relative percentage of GFP-positive cells; restriction significantly different from wild type [2]: 67.9%
8 | TRIM-NUP153C-HA S1412M (from UniProt Q0PF16 1-304; P49790 896-1475) | 64.1% | 
9 | TRIM-NUP153C-HA S1412P (from UniProt Q0PF16 1-304; P49790 896-1475) |  | percent bound to CA tubes (cosedimented) [1]: 63%
10 | TRIM-NUP153C-HA T1416M (from UniProt Q0PF16 1-304; P49790 896-1475) | 86.8% | 
11 | TRIM-NUP153C-HA V1414I (from UniProt Q0PF16 1-304; P49790 896-1475) | 63.9% | 
12 | recombinant purified multimeric HIV-1 CA tubes assembled from cross-linked CA hexamers (CA A14C/E45C) (natural protein) |  | stoichiometry N [3]: 6
